Experimental data reported in PMC8967061, “Mechanism of Borrelia immune evasion by FhbA-related proteins” (PLoS Pathogens, 2022).
Changes are numbered by the printed parent chain.

T1: BhFhbA Asn88Ala (Borrelia hermsii YOR, UniProt W5SB08 44-202, Asn88Ala)
T1 construct: FhbA of Borrelia hermsii strain YOR, residues 44-202 as the wild type construct, single alanine mutant; also called #2; source: E. coli BL21 (DE), purified (Ni-NTA, size-exclusion chromatography)
T1 sequence (looked up): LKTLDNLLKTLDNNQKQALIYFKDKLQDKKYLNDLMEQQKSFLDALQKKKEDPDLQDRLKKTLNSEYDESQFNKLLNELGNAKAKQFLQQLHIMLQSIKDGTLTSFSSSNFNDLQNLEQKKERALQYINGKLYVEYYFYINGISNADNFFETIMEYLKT

T2: BhFhbA Asn153Ala (Borrelia hermsii YOR, UniProt W5SB08 44-202, Asn153Ala)
T2 construct: FhbA of Borrelia hermsii strain YOR, residues 44-202 as the wild type construct, single alanine mutant; source: E. coli BL21 (DE), purified (Ni-NTA, size-exclusion chromatography)
T2 sequence (looked up): T1 sequence (looked up) with A45N, N110A

T3: BhFhbA Glu178Ala (Borrelia hermsii YOR, UniProt W5SB08 44-202, Glu178Ala)
T3 construct: FhbA of Borrelia hermsii strain YOR, residues 44-202 as the wild type construct, single alanine mutant; source: E. coli BL21 (DE), purified (Ni-NTA, size-exclusion chromatography)
T3 sequence (looked up): T1 sequence (looked up) with A45N, E135A

T4: BhFhbA Lys91Ala (Borrelia hermsii YOR, UniProt W5SB08 44-202, Lys91Ala)
T4 construct: FhbA of Borrelia hermsii strain YOR, residues 44-202 as the wild type construct, single alanine mutant; also called #3; source: E. coli BL21 (DE), purified (Ni-NTA, size-exclusion chromatography)
T4 sequence (looked up): T1 sequence (looked up) with A45N, K48A

T5: BhFhbA Ile171Ala (Borrelia hermsii YOR, UniProt W5SB08 44-202, Ile171Ala)
T5 construct: FhbA of Borrelia hermsii strain YOR, residues 44-202 as the wild type construct, single alanine mutant; source: E. coli BL21 (DE), purified (Ni-NTA, size-exclusion chromatography)
T5 sequence (looked up): T1 sequence (looked up) with A45N, I128A

T6: BhFhbA Phe181Ala (Borrelia hermsii YOR, UniProt W5SB08 44-202, Phe181Ala)
T6 construct: FhbA of Borrelia hermsii strain YOR, residues 44-202 as the wild type construct, single alanine mutant; also called #9; source: E. coli BL21 (DE), purified (Ni-NTA, size-exclusion chromatography)
T6 sequence (looked up): T1 sequence (looked up) with A45N, F138A

T7: BhFhbA Phe85Ala (Borrelia hermsii YOR, UniProt W5SB08 44-202, Phe85Ala)
T7 construct: FhbA of Borrelia hermsii strain YOR, residues 44-202 as the wild type construct, single alanine mutant; also called #1; source: E. coli BL21 (DE), purified (Ni-NTA, size-exclusion chromatography)
T7 sequence (looked up): T1 sequence (looked up) with F42A, A45N

T8: BhFhbA Met137Ala (Borrelia hermsii YOR, UniProt W5SB08 44-202, Met137Ala)
T8 construct: FhbA of Borrelia hermsii strain YOR, residues 44-202 as the wild type construct, single alanine mutant; also called #4; source: E. coli BL21 (DE), purified (Ni-NTA, size-exclusion chromatography)
T8 sequence (looked up): T1 sequence (looked up) with A45N, M94A

T9: BhFhbA Glu198Ala (Borrelia hermsii YOR, UniProt W5SB08 44-202, Glu198Ala)
T9 construct: FhbA of Borrelia hermsii strain YOR, residues 44-202 as the wild type construct, single alanine mutant; also called #10; source: E. coli BL21 (DE), purified (Ni-NTA, size-exclusion chromatography)
T9 sequence (looked up): T1 sequence (looked up) with A45N, E155A

B1: Factor H binding protein A (FhbA) from Borrelia hermsii, wild type (domain or fragment)
chain: T1 sequence (looked up) with A45N
notes: FhbA of Borrelia hermsii strain YOR, without its leader peptide, residues 44-202; also called BhFhbA; Wild type BhFhbA; source: E. coli BL21 (DE), purified (Ni-NTA, size-exclusion chromatography)
B2: Factor H domains 19-20 (domain or fragment)
chain: DSTGKCGPPPPIDNGDITSFPLSVYAPASSVEYQCQNLYQLEGNKRITCRNGQWSEPPKCLHPCVISREIMENYNIALRWTAKQKLYSRTGESVEFVCKRGYRLSSRSHTLRTTCWDGKLEYPTCAKR
modifications: RED-tris-NTA dye label (in the MST assays only)
notes: human complement factor H, short consensus repeat domains 19-20, wild type; also called FH19-20; FH19-20 fragment

Key:
Conditions in all cases: both partners purified
[1] = molecular target: T10, Factor H, full length (human, UniProt P08603 19-1231, RED-tris-NTA dye label (in the MST assays only)); experiment: MST; full-length FH labelled with RED-tris-NTA dye, FhbA proteins titrated, PBS/0.025% Tween-20, 22 C
T10 construct: human complement factor H, 20 short consensus repeat domains; In the functional assays FH was that of whole blood or serum; also called FH; full-length FH; source: bought: Comptech (Complement Technologies), TX, USA

[2] = molecular target: T1, BhFhbA Asn88Ala; experiment: MST; FH19-20 labelled with RED-tris-NTA dye (300 nM stock, mixed 1:1 with ligand), FhbA proteins titrated, PBS/0.025% Tween-20, 22 C
[3] = molecular target: T2, BhFhbA Asn153Ala; experiment: as above
[4] = molecular target: T3, BhFhbA Glu178Ala; experiment: as above
[5] = molecular target: T4, BhFhbA Lys91Ala; experiment: as above
[6] = molecular target: T5, BhFhbA Ile171Ala; experiment: as above
[7] = molecular target: B1; experiment: as above
[8] = molecular target: T6, BhFhbA Phe181Ala; experiment: as above
[9] = molecular target: T7, BhFhbA Phe85Ala; experiment: as above
[10] = molecular target: T8, BhFhbA Met137Ala; experiment: as above
[11] = molecular target: T9, BhFhbA Glu198Ala; experiment: as above

Which Kd [1] does the source give for B1 here?
The Kd was 30 nM.

What does the source list for B2?
Kd [2]: 110 nM; Kd [3]: 73 nM; Kd [4]: 100 nM; Kd [5]: 110 nM; Kd [6]: 380 nM; Kd [7]: 82 nM; Kd [8]: 33 nM; Kd [9]: 110 nM; Kd [10]: 1000 nM; Kd [11]: 130 nM
